Experimental data reported in patent US5777085, “Humanized antibodies reactive with GPIIB/IIIA” (Protein Design Labs, Inc., dated 1998).

B1: humanized C4G1 antibody (antibody, V domains shown)
VH: QVQLVQSGAEVKKPGSSVKVSCKASGYAFTNYLIEWVRQAPGQGLEWIGVIYPGSGGTNYNEKFKGRVTLTVDESTNTAYMELSSLRSEDTAVYFCARRDGNYGWFAYWGQGTLVTVSS
VL: DIQMTQTPSTLSASVGDRVTISCRASQDINNYLNWYQQKPGKAPKLLIYYTSTLHSGVPSRFSGSGSGTDYTLTISSLQPDDFATYFCQQGNTLPWTFGQGTKVEVKR
B2: mouse C4G1 antibody (antibody, V domains shown)
VH: QVQLQQSGAELVGPGTSVRVSCKASGYAFTNYLIEWVKQRPGQGLEWIGVIYPGSGGTNYNEKFKGKATLTVDKSSTTAYMQLSSLTSDDSAVYFCARRDGNYGWFAYWGRGTLVTVSA
VL: DIQMTQTTSSLSASLGDRVTISCRASQDINNYLNWYQQKPDGIVKLLIYYTSTLHSGVPSRFSGSGSGTDYSLTISNLEQEDIATYFCQQGNTLPWTFGGGTKLEIK
B3: mouse C4G1 Fab fragment (Fab, V domains shown)
VH: QVQLQQSGAELVGPGTSVRVSCKASGYAFTNYLIEWVKQRPGQGLEWIGVIYPGSGGTNYNEKFKGKATLTVDKSSTTAYMQLSSLTSDDSAVYFCARRDGNYGWFAYWGRGTLVTVSA
VL: DIQMTQTTSSLSASLGDRVTISCRASQDINNYLNWYQQKPDGIVKLLIYYTSTLHSGVPSRFSGSGSGTDYSLTISNLEQEDIATYFCQQGNTLPWTFGGGTKLEIK
B4: mouse C4G1 F(ab')2 fragment (other)
VH: QVQLQQSGAELVGPGTSVRVSCKASGYAFTNYLIEWVKQRPGQGLEWIGVIYPGSGGTNYNEKFKGKATLTVDKSSTTAYMQLSSLTSDDSAVYFCARRDGNYGWFAYWGRGTLVTVSA
VL: DIQMTQTTSSLSASLGDRVTISCRASQDINNYLNWYQQKPDGIVKLLIYYTSTLHSGVPSRFSGSGSGTDYSLTISNLEQEDIATYFCQQGNTLPWTFGGGTKLEIK

Target: GPIIb/IIIa (human, UniProt P08514)
Experiment: competitive binding on HEL 92.1.7 cells, radioiodinated mouse C4G1 as tracer
Procedure: The affinities of the humanized C4G1 antibody, Fab fragment and F(ab')_2-1 fragment were determined by competitive binding with the respective mouse C4G1 antibody and fragments. Purified human platelets were used as source of the GPIIb/IIIa antigen. The platelets were purified from buffy coats from normal human donors by centrifugation on ficoll-hypaque. Increasing amounts of humanized or mouse competitor antibody or fragment was added to 4.5 ng of radioiodinated tracer C4G1 antibody (3.5 µCi/ug) and incubated with 3×10^7 platelets in 0.2 ml of modified Tyrode's buffer for 1 hr. at room temperature. Cells were washed with 2 ml of ice-cold buffer and pelleted. The radioactivities were measured, and the concentrations of bound and free tracer antibody were calculated (FIG. 8). The binding affinities of the various antibodies and fragments were calculated as in Queen et al., Proc. Nat. Acad. Sci. USA 86, 10029 (1989). […] The same result was obtained when competitive binding was performed with HEL 92.1.7 cells as source of GPIIb/IIIa antigen. Moreover all the actual binding affinities to these cells were about 10^8 M^-1 or higher.

Binder	Ka
B1	> 1e+08 M⁻¹
B2	≥ 1e+08 M⁻¹
B3	≥ 1e+08 M⁻¹
B4	≥ 1e+08 M⁻¹
